In US20260209318A1 (NATIONAL UNIVERSITY OF SINGAPORE, published 2026):

Molecular target: BQ.1.1 spike protein (SARS-CoV-2 variant BQ.1.1, UniProt P0DTC2 14-1273)
Experiment: cell-based or functional assay

Binder | IC50 (pVNT) [ng/ml] | concentration required to effectively neutralize (pVNT) [ng/ml] | times less than the concentration of E7 [times]
Ab6 (K23) (antibody, V domains shown) VH: EVQLVESGGGLVQPGGSLRLSCSASGFTFNNYVMHWVRQAPGKGLEYVSAINSNGGSTYYAGSVKGRFTISRDNSNNTLYLQMSSLRAEDTAVYYCIKDAGYYSSLGVDSWGQGTLVTVSS VL: EIVLTQSPATLSLSPGERATLSCRASQSVGSYLAWFQQKPGQAPRLLIYDASYRATGIPARFSGSGSGTDFTLTISSLEPEDVGIYYCQQRSNWPQTFGGGTKVDIK | ≤ 550 | – | –
Ab7 (G1) (antibody, V domains shown) VH: EVQLVESGGGLVKPGGSLRLSCAASGFTVSTYIINWVRQAPGKGLEWVSSITSESDYMFDADSVRGRFTISRDNAKNLVYLQMNSLRAEDTAVYYCARDQGAYSGYDLSPGGDAFDVWGQGTMVTVSS VL: DIQMTQSPSTLSASVGDRVTITCRASQSISTWLAWYQQKPGKAPKLLIYKASNLESGVPSRFSGSGSGTEFTLTISRLQPDDSATYCCQHYNSYPYTFGQGTKVEIK | ≤ 550 | – | –
Ab8 (B9) (antibody, V domains shown) VH: EVQLVQSRAEVKKPGESLKISCKGSGYSFTTYWIGWVRQMPGKGLEWMGIIRPGDSDTRYSPSFQGQVTISADKSITTAYLQWSSLKASDTAMYYCAMTYSGDQYDFWGQGTVVTVSS VL: DIQMTQSPSTLSASVGDRVTITCRASQSIHTWLAWYQQTPGKAPKLLIYKASLLESGVPSRFSGSGSGTEFTLTISSLQPGDFATYYCQHYNSYSHTFGQGTKVEIK | ≤ 550 | – | –
Ab23 (B10.1) (antibody, V domains shown) VH: QVQLVQSGAEVKKPGSAVKVSCKASGGTFSSYPITWVRQAPGQGLEWVGRAIPILGITSTAQKFQGRVTIIADKSTSTAYMELSRLRSEDTAVYYCARDFHPRYQDCDSTSCYDQWEPRMDVWGQGTTVTVSS VL: not shown | ≤ 550 | – | –
Ab40 (10x-L8N-c32) (antibody, V domains shown) VH: QVQLQESGPRLVKPSETLSLTCTVSGGSISSYYWTWIRQPPGKGLEWIGYISYSGSTNYNPSLRSRVTMSVDTSKNQFSLDLNSVTAADTAVYYCATDGGGFYPGYFPHWGQGTLVTVSS VL: DIQMTQSPSSLSASVGDRVTITCRASQSISDYVNWYQQKPGRAPRLLIYAPSTLQSGVPSRFSGSGSGTDFTLTISNLQPEDFGTYFCQQSYSTPPYTFGQGTKVEMK | ≤ 550 | – | –
Ab26 (G4.2) (antibody, V domains shown) VH: QVQLVQSGAEVKKPGSSVKVSCKASGGTFSSHTVSWVRQAPGQGLEWMGRIIPPFGIVNYAQKFQGRVTMTADESTSTAYMELSSLRSEDTAVYYCARSNVVVVTEAGWFDPWGQGTLVTVSS VL: DIQMTQSPSSVSASVGDRVSISCRASQDISSSLAWYQQKPGQAPKVLIYDASTLQSGVPSRFSGSGSGTDFTLTISNLRPDDFATYFCQQAHSFPFTFGPGTKVDIR | ≤ 550 | – | –
Ab22 (C9.1) (antibody, V domains shown) VH: QVQLVQSGAEVKKPGSSVKVSCKASGGTFSSYGISWVRQAPGQGLEWMGRIIPSLSITNSAEKFQGRVTITADKSTSTAYMELSRLRSEDTALYYCARDFHPRYEFCDSTSCYDEWEPRMDVWGQGTTVTVSS VL: not shown | ≤ 550 | – | –
Ab25 (H10.2) (antibody, V domains shown) VH: QVQLVQSGAEVKKPGSSVKVSCKASRGTFSNYAISWVRQAPGQGLEWMGRIIPSLSITNSAEKFQGRVTMTADKSTSTVYMELSRLRSEDTAVYYCARDFHPRYEYCSSTSCYDEWEPRMDVWGQGTTVTVSS VL: not shown | ≤ 550 | – | –
Ab13 (D10) (antibody, V domains shown) VH: EVQLVESGGGLVQPGRSLRLSCAASGFTFDEYAMHWVRQAPGKGLEWVSGISFNSGSVGYAGAAKGRFTISRDNAKKSLYLEMNSLRDEDTAFYYCAKDRGEHWLVRLFDSWGQGTLVTVSS VL: DIQMTQSPSTLSASVGDRVTITCRPSQSIDRWLAWYQQKPGKAPTLLISAASSLETGVPSRFSGSGSGTEFTLTISSLQPDDFATYYCQQYNGYSMFGPGTKVEIK | ≤ 550 | – | –
Ab11 (D4) (antibody, V domains shown) VH: QVQLQESGPRLVKPSGTLSLSCAVSGGPFSNTNWWSWIRQTPGKGLEWIGEINDSGNTVYNPALKSRVTMSVDKSKKQFSLNLHSLTAADTAVYFCARVWGHFDYWGQGVRVTVSS VL: DIQMTQSPSSLYASVADRVTITCRASQGISNSLAWYQQQPGKAPQLLLYAASTLESGVPSRFSGSGSGTDFTLTISSLQPEDFATYYCQQYYSLRTFGGGTKVEIK | ≤ 550 | – | –
Ab27 (E12.2) (antibody, V domains shown) VH: EVQLVESGGGLVQPGGSLRLSCGASGITVSSNYMNWVRQAPGKGLEWVSTLYAGGSTFYADSVKGRFIISRDNSKNTLYLQMNSLRADDTAVYYCARDLVDYGMDVWGQGTTVTVSS VL: DIQLTQSPSSLSASVGDRVTITCRASQGISSYLAWYQQKPGKAPKLLIYAASTLQSGVPSRFSGSGSGTDFTLTISSLQPEDFATYYCQQLNSYSPFTFGPGTKVDIK | ≤ 550 | – | –
Ab20 (C6.1) (antibody, V domains shown) VH: EVQLVESGGGLVKPGGSLRLSCAASGFAFSTNGMNWVRQVPGKGLEWVSSISSTSEYTYYTESVKGRFTISRDNAKNSLFLQMNSLRAEDTAVYYCVRDRFGYYDVLASSYNVGFFQSWGQGALVTVSS VL: DIQMTQSPSSLSASVGDGVTITCRASQDISNNLAWFQQKPGKAPKCLIYSASSLQSGVPLKFRGSGSGTDFTLSITSLDPEDFATYYCQQYISYPITFGQGTRLDIK | ≤ 550 | – | –
Ab9 (C68) (antibody, V domains shown) VH: QVQLVQSGAEVKKPGASVKVSCKISGYTLTDFSIHWVRQAPGKGLEWMAGFDPEHRETIFAQKFQGRVAMTEATSTDTAYMELSSLRSDDTAVYYCATTGDFDSWRGYYLWGQGTLVTVSA VL: DIQLTQSPSSVSASVGDSVTITCRASQGISRWLAWYQQKPGKAPRLLIYSASTLQSGVPSRFSGSGSGTDFTLTISSLQPDDFATYYCQHTNNFPFSFGPGTKVDIK | ≤ 550 | – | –
Ab19 (F5.1) (antibody, V domains shown) VH: EVQLVESGGGLVKPGGSLRLSCAASGFIFSRNGMHWVRQAPGKGLEWVSSIDNDGTYMYYADSVRGRFTVSRDNAKNSLFLQLNSLRAEDTAVYYCARDRFGYYDALTDSYNAGYFDSWGQGTLVTVSS VL: DIQMTQSPSSLSASVGDSVTITCRASQDIYNYLAWFQQKPGKAPKSLIYTASKLESGVPSKFSGSGSGTDFTLTISSLQPEDFATYYCQQYHSSPITFGQGTRVEIK | ≤ 550 | – | –
Ab21 (E6.1) (antibody, V domains shown) VH: QVQLVQSGAEVKKPGSSVEVSCKASGGTFSSYAISWVRQAPGQGLEWMGRIIPSLGITNSAENFQGRVTITADKSTSTVYMELSSLRSEDTAVYYCARDFHPLYQSCSSTSCYDEWEPRMDVWGQGTTVTVSS VL: not shown | ≤ 550 | – | –
Ab28 (10x-L8N-c1) (antibody, V domains shown) VH: QFQLVQSGAEVKKPGSSVKVSCRASGGSFTSHAISWVRQAPGQGFEWMGRIIPMFGIANYAPKFQGRVTMSADKFKDIVYMEVNSLTSEDTALYYCARSQPMTSVTTLWFDPWGQGTLVTVSS VL: EIVLTQSPGTLSLSPGERATLSCRASEPVGGSYLAWYQQKPGQAPRLLIHGASSRATGIPDRFSGSGSGTDFVLTISRLEPEDFAVYHCQQYASSPYTFGQGTKLEIK | ≤ 550 | – | –
Ab4 (G7.2) (antibody, V domains shown) VH: QVQLVQSGAEVKKPGSSVKVSCEASGGTFSTYAISWVRQAPGQGLEWMGRIIPIFGIANYAQKFQGRVTITADKSTSTAYMEVSSLRSEDTAVYYCATTFYDHSSTYRTHSMDVWGQGTTVTVSS VL: DIQMTQSPSSLSASVGDRVTITCRASQSISNYLNWYQQRPGKAPKLLIYAASGLQSGVPSRFSGSGSGTNFTLTISTLHPEDFATYYCQQTHSTPRAFGGGTKVEIK | ≤ 300 | 48.4 | ~11
Ab12 (H5) (antibody, V domains shown) VH: EVQLLESGGGLVQPGGSLRLSCAASGFTFSGSDMSWVRQAPGKGLEWVSVIGGSGTYAYYSDSVKGRFTISRDNSKNMLFLQMNSLRAEDTAIYYCAKETGFLWFGELLDSWGQGALVTVSS VL: DIQMTQSPSSLSASVGDRVTITCRASEAISNSLAWYQQRPGKAPRLLLYAAATLESGVPPRFSGSGSGTDFTLTISTLQPEDFATYYCQQYYSPPPRTFGQGTKVEIK | ≤ 550 | – | –
Ab3 (C2.2) (antibody, V domains shown) VH: QVQLVQSGAEVKKPGSSVRVSCEASGDTFSRYAISWVRQAPGQGLEWMGRIIPMFGMANSAQKFQARVTISADKSTSTAYMEVSSLRSEDTAVYYCATDTFYPNDGVHRMEYWGQGALVIVSS VL: DIQMTQSPSSLSASVGDRVTITCRASQTISNYLNWYQQKPGKAPNLLIYGTSILQSGVPSRFSGSGSGTDFTLTISSLQPEDFATYYCQQSHSAPRTFGPGTKVDIK | ≤ 300 | 271 | ~2
Ab39 (10x-L8N-c30) (antibody, V domains shown) VH: QVQLVQSGAEVKKPGSSVKISCKASGDTSSSYTINWVRQAPGQGLEWMGRIIPMFNRANYARKFQGRVTMTADRSTDTAYMEVSSLTSDDTAVYYCARTWIEPHNWFDPWGQGTLVTVSS VL: EIVLRQSPGTLSLSPGERATLSCRASQSVSGNHLAWYQRKPGQAPRLLIYAASSRATGIPDRFSGSGSGTDFTLTINRLEPEDFAVFYCQQYGTSPPTFGGGTKVEIK | ≤ 550 | – | –
Ab32 (10x-L8N-c12) (antibody, V domains shown) VH: EVQLVESGGGLVQPGGSLRVTCVASGFAVRTNFMTWVRQAPGKGLQCVSVIYGDGSTYYADSVKGRFSISRDNSKNTVYLQMNSLSAEDTAVYYCAREVSHAFDLWGPGTMVTVSS VL: DIQLTQSPSTLSASLGDRVTITCRASQSISGWLAWYQQKPGRAPQLLIYKASLLETGVPSRFSGSGSGTVFTLTISSLQPDDFATYYCQQYDTYSPYTFGQGTKLEIK | ≤ 550 | – | –
Ab14 (F9) (antibody, V domains shown) VH: EVQLVESGGGLVQPGGSLRLSCATSGFTFDDFAMHWVRQGPGKGLEWVSGISWNSGKIAYTDSVKGRFSISRDNAKNSLYLQMNSLRPEDTALYYCTKDHAPSAILGDILTGFDPWGQGTLVT VL: DIQMTQSPVSLSASVGDRVTITCRASQSISVYLNWYQQKPGKAPKLLMYAASILQSGVPSRFSGSGSATDFTLTITSLQPEDFATYFCQQSFTMPPTFGQGTNLEIK | ≤ 550 | – | –
Ab35 (10x-L8N-c20) (antibody, V domains shown) VH: QVQLQESGPGLVKPSETLSLTCTVSGDSIYSYSWTWIRQPPGKGLEWIGQLYYNGSTSYNASLKSRVSISLDTSKNQFSLKLRFVTAADTAMYYCARVEYYSNYFDPWGQGTQVTVSS VL: EIVLTQSPATLSLSPGERATLSCRASQSVGSYLAWYQQKPGQAPRLLIYDASNRVPGIPARFSGSGSGTDFTLTISSLPPEDFAVYYCQQRSDWPPTFGGGTKVEIR | ≤ 550 | – | –
